# Where two headings read alike, the source gives them in different places. Positions of bridges follow the written chain, without caps; N, C: chain ends. Non-standard residues stand in square brackets, D forms with d. No end group written: not given here. *: point of attachment. Palmitoyl = CCCCCCCCCCCCCCCC(=O)*; Aib = CC(C)(N)C(=O)O
# B1: peptide of SEQ ID NO: 555 (peptide)
# peptide: YSQGTFTSDYSKYLDEQAAKEFVNWLMNGGPSSGAPPPS-NH2
# modifications: lactam 16-20; N-terminus assumed
# SMILES: CSCC[C@H](NC(=O)[C@H](CC(C)C)NC(=O)[C@H](Cc1c[nH]c2ccccc12)NC(=O)[C@H](CC(N)=O)NC(=O)[C@@H](NC(=O)[C@H](Cc1ccccc1)NC(=O)[C@H](CCC(=O)O)NC(=O)[C@@H]1CCCCNC(=O)CC[C@H](NC(=O)[C@H](CC(=O)O)NC(=O)[C@H](CC(C)C)NC(=O)[C@H](Cc2ccc(O)cc2)NC(=O)[C@H](CCCCN)NC(=O)[C@H](CO)NC(=O)[C@H](Cc2ccc(O)cc2)NC(=O)[C@H](CC(=O)O)NC(=O)[C@H](CO)NC(=O)[C@@H](NC(=O)[C@H](Cc2ccccc2)NC(=O)[C@@H](NC(=O)CNC(=O)[C@H](CCC(N)=O)NC(=O)[C@H](CO)NC(=O)[C@@H](N)Cc2ccc(O)cc2)[C@@H](C)O)[C@@H](C)O)C(=O)N[C@@H](CCC(N)=O)C(=O)N[C@@H](C)C(=O)N[C@@H](C)C(=O)N1)C(C)C)C(=O)N[C@@H](CC(N)=O)C(=O)NCC(=O)NCC(=O)N1CCC[C@H]1C(=O)N[C@@H](CO)C(=O)N[C@@H](CO)C(=O)NCC(=O)N[C@@H](C)C(=O)N1CCC[C@H]1C(=O)N1CCC[C@H]1C(=O)N1CCC[C@H]1C(=O)N[C@@H](CO)C(N)=O
# B2: Glucagon (1-29a) Aib2 Aib16 (peptide)
# peptide: H[Aib]QGTFTSDYSKYLD[Aib]RRAQDFVQWLMNT-NH2
# modifications: N-terminus assumed
# SMILES: CSCC[C@H](NC(=O)[C@H](CC(C)C)NC(=O)[C@H](Cc1c[nH]c2ccccc12)NC(=O)[C@H](CCC(N)=O)NC(=O)[C@@H](NC(=O)[C@H](Cc1ccccc1)NC(=O)[C@H](CC(=O)O)NC(=O)[C@H](CCC(N)=O)NC(=O)[C@H](C)NC(=O)[C@H](CCCNC(=N)N)NC(=O)[C@H](CCCNC(=N)N)NC(=O)C(C)(C)NC(=O)[C@H](CC(=O)O)NC(=O)[C@H](CC(C)C)NC(=O)[C@H](Cc1ccc(O)cc1)NC(=O)[C@H](CCCCN)NC(=O)[C@H](CO)NC(=O)[C@H](Cc1ccc(O)cc1)NC(=O)[C@H](CC(=O)O)NC(=O)[C@H](CO)NC(=O)[C@@H](NC(=O)[C@H](Cc1ccccc1)NC(=O)[C@@H](NC(=O)CNC(=O)[C@H](CCC(N)=O)NC(=O)C(C)(C)NC(=O)[C@@H](N)Cc1c[nH]cn1)[C@@H](C)O)[C@@H](C)O)C(C)C)C(=O)N[C@@H](CC(N)=O)C(=O)N[C@H](C(N)=O)[C@@H](C)O
# B3: AIB2, AIB16, K10(C16), K30 Glucagon Amide (peptide)
# peptide: H[Aib]QGTFTSDK(Palmitoyl)SKYLD[Aib]RRAQDFVCWLMNTK-NH2
# modifications: N-terminus assumed
# SMILES: CCCCCCCCCCCCCCCC(=O)NCCCC[C@H](NC(=O)[C@H](CC(=O)O)NC(=O)[C@H](CO)NC(=O)[C@@H](NC(=O)[C@H](Cc1ccccc1)NC(=O)[C@@H](NC(=O)CNC(=O)[C@H](CCC(N)=O)NC(=O)C(C)(C)NC(=O)[C@@H](N)Cc1c[nH]cn1)[C@@H](C)O)[C@@H](C)O)C(=O)N[C@@H](CO)C(=O)N[C@@H](CCCCN)C(=O)N[C@@H](Cc1ccc(O)cc1)C(=O)N[C@@H](CC(C)C)C(=O)N[C@@H](CC(=O)O)C(=O)NC(C)(C)C(=O)N[C@@H](CCCNC(=N)N)C(=O)N[C@@H](CCCNC(=N)N)C(=O)N[C@@H](C)C(=O)N[C@@H](CCC(N)=O)C(=O)N[C@@H](CC(=O)O)C(=O)N[C@@H](Cc1ccccc1)C(=O)N[C@H](C(=O)N[C@@H](CS)C(=O)N[C@@H](Cc1c[nH]c2ccccc12)C(=O)N[C@@H](CC(C)C)C(=O)N[C@@H](CCSC)C(=O)N[C@@H](CC(N)=O)C(=O)N[C@H](C(=O)N[C@@H](CCCCN)C(N)=O)[C@@H](C)O)C(C)C
# Tests used:
# Test in all cases: cell-based or functional assay
# glucagon receptor [1] = molecular target: T1, glucagon receptor (UniProt P47871 26-477, limits assumed)
# T1 sequence (P47871 26-477 limits assumed): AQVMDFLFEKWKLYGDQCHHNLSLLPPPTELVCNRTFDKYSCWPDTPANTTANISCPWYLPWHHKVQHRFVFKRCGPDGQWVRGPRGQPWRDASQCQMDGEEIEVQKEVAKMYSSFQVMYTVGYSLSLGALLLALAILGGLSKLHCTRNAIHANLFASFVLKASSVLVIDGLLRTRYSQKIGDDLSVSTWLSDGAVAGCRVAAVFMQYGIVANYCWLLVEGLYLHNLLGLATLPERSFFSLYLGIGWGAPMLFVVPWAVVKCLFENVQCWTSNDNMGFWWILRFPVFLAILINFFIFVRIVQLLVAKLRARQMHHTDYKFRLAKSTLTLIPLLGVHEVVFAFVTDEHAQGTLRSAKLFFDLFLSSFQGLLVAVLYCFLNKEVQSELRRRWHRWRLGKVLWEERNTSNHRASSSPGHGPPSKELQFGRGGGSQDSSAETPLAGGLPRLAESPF
# GLP-1 receptor [2] = molecular target: T2, GLP-1 receptor (UniProt P43220 24-463, limits assumed)
# glucagon receptor [3] = molecular target: T1, glucagon receptor; remark: listed apart in the source
# GLP-1 receptor [4] = molecular target: T2, GLP-1 receptor; remark: listed apart in the source
# glucagon receptor [5] = molecular target: T1, glucagon receptor; remark: listed apart in the source
# GLP-1 receptor [6] = molecular target: T2, GLP-1 receptor; remark: listed apart in the source
# glucagon receptor [7] = molecular target: T1, glucagon receptor; remark: listed apart in the source
# GLP-1 receptor [8] = molecular target: T2, GLP-1 receptor; remark: listed apart in the source
# glucagon receptor [9] = molecular target: T1, glucagon receptor; remark: listed apart in the source
# GLP-1 receptor [10] = molecular target: T2, GLP-1 receptor; remark: listed apart in the source
# glucagon receptor [11] = molecular target: T1, glucagon receptor; remark: listed apart in the source
# GLP-1 receptor [12] = molecular target: T2, GLP-1 receptor; remark: listed apart in the source
# glucagon receptor [13] = molecular target: T1, glucagon receptor; remark: listed apart in the source
# GLP-1 receptor [14] = molecular target: T2, GLP-1 receptor; remark: listed apart in the source
# glucagon receptor [15] = molecular target: T1, glucagon receptor; remark: listed apart in the source
# GLP-1 receptor [16] = molecular target: T2, GLP-1 receptor; remark: listed apart in the source
# glucagon receptor [17] = molecular target: T1, glucagon receptor; remark: listed apart in the source
# GLP-1 receptor [18] = molecular target: T2, GLP-1 receptor; remark: listed apart in the source
# glucagon receptor [19] = molecular target: T1, glucagon receptor; remark: listed apart in the source
binder,measurement,setting,value
HSQGTFTSDYSKYLDERRAKDFVQWLMNT-NH2 [E16 K20-glucagon-NH2],Percent Potency Relative to Native Ligand,glucagon receptor [1],130%
same,Percent Potency Relative to Native Ligand,GLP-1 receptor [2],41.5%
same,Percent Potency Relative to Native Ligand,glucagon receptor [3],130%
same,Percent Potency Relative to Native Ligand,GLP-1 receptor [4],41.5%
same,EC50,glucagon receptor [5],0.18 nM
same,EC50,GLP-1 receptor [6],0.21 nM
same,EC50,glucagon receptor [7],0.18 nM
same,EC50,GLP-1 receptor [8],0.21 nM
same,EC50,glucagon receptor [9],0.203 nM
same,EC50,GLP-1 receptor [10],0.188 nM
B1,EC50,glucagon receptor [11],0.044 nM
same,EC50,GLP-1 receptor [12],0.062 nM
B2,EC50,glucagon receptor [13],0.09 nM
same,EC50,GLP-1 receptor [14],0.1 nM
B3,EC50,glucagon receptor [15],0.761 nM
same,EC50 (20% human plasma),glucagon receptor [15],0.313 nM
same,EC50 (20% human plasma),GLP-1 receptor [16],0.017 nM
"HSEGTFTSDYSKYLDERRAQDFVQWLMNT-NH2 [E3, E16 Gluc-NH2]",Percent Potency Relative to Native Ligand,glucagon receptor [17],1.6%
same,Percent Potency Relative to Native Ligand,GLP-1 receptor [18],28.8%
HSEGTFTSDYSKYLDEQAAKEFIC(PEG 20 kDa)WLMNT-NH2 [Peptide V],glucagon agonism,glucagon receptor [19],> 10 fold

# Source: patent publication US20120172295A1 (INDIANA UNIVERSITY RESEARCH AND TECHNOLOGY, published 2012)
